# According to patent US20210115421:
# Experiments:
# Assay in all cases: cell_activity
# [1] = system: dLbCas12a-T152R-K538W-K595Y T152R,K538W,K595Y (Lachnospiraceae bacterium ND2006); conditions: PAM-SCANR in E. coli
# [2] = system: dLbCas12a-G532R-K595R (RR) G532R,K595R (Lachnospiraceae bacterium ND2006); conditions: PAM-SCANR in E. coli
# [3] = system: dLbCas12a-K538W-K595Y K538W,K595Y (Lachnospiraceae bacterium ND2006)
# [4] = system: dLbCas12a-K595Y K595Y (Lachnospiraceae bacterium ND2006)
# [5] = system: dLbCas12a-K538W K538W (Lachnospiraceae bacterium ND2006)
# [6] = system: wt dLbCas12a (catalytically inactive LbCas12a) (Lachnospiraceae bacterium ND2006); conditions: PAM-SCANR in E. coli, cutoff 1.67
# [7] = system: dLbCas12a-T152R-K538W T152R,K538W (Lachnospiraceae bacterium ND2006); conditions: PAM TTTC; printed column identical to K538W+K595Y column
# [8] = system: dLbCas12a-T152R T152R (Lachnospiraceae bacterium ND2006); conditions: PAM TTTG; PAM-SCANR in E. coli, cutoff 1.67
# [9] = PAM CCCC, not recognized by single mutant
substance,measurement,setting,value
"crRNA targeting lacI promoter ; lacI promoter reporter, AGCC PAM",binding signal (normalized score),[1]; PAM AGCC,13.7
"crRNA targeting lacI promoter ; lacI promoter reporter, CCCC PAM",binding signal (normalized score),[2]; PAM CCCC,3.87
same,binding signal (normalized score),"[3]; PAM CCCC, PAM-SCANR in E. coli",2.95
same,binding signal (normalized score),[4]; [9],< 1.67
same,binding signal (normalized score),[5]; [9],< 1.67
"crRNA targeting lacI promoter ; lacI promoter reporter, CCGC PAM",binding signal (normalized score),[6]; PAM CCGC,2.23
"crRNA targeting lacI promoter ; lacI promoter reporter, TCGC PAM",binding signal (normalized score),"[4]; PAM TCGC, PAM-SCANR in E. coli, cutoff 1.67",3.23
"crRNA targeting lacI promoter ; lacI promoter reporter, TGGC PAM",binding signal (normalized score),[1]; PAM TGGC,10.3
"crRNA targeting lacI promoter ; lacI promoter reporter, TTCG PAM",binding signal (normalized score),[2]; PAM TTCG,4.81
"crRNA targeting lacI promoter ; lacI promoter reporter, TTTA PAM",binding signal (normalized score),"[4]; PAM TTTA, TTTV lost in K595Y",< 1.67
same,binding signal (normalized score),"[5]; PAM TTTA, PAM-SCANR in E. coli, cutoff 1.67, a second K538W column gives 11.18",4.71
"crRNA targeting lacI promoter ; lacI promoter reporter, TTTC PAM",binding signal (normalized score),[7],12
same,binding signal (normalized score),"[3]; PAM TTTC, printed column identical to T152R+K538W column",12
same,binding signal (normalized score),[6]; PAM TTTC,2.96
"crRNA targeting lacI promoter ; lacI promoter reporter, TTTG PAM",binding signal (normalized score),[8],2.94
